Reference: US8530168B2, “Fusion protein comprising a Caspase domain and a nuclear hormone receptor binding domain and methods and uses thereof” (Helmholtz Zentrum Munich Deutsches Forschungszentrum fuer …, priority 2007, dated 2013)
Entries after “also recorded” stand apart in the source; their conditions may differ.

Legend:
Assay type in all cases: cell-based, mouse
MEF5/N9 cells [1] = experiment: Transient cotransfection of ER(T2) fusion expression vectors with β-galactosidase reporter; β-galactosidase activity in lysates; conditions: 10^−8 M 4-OH-tamoxifen, 48 h; for relative β-galactosidase activity in presence of 4-OH-tamoxifen compared to the negative control: relative to Cre-ER(T2) without 4-OH-tamoxifen
Protocol: The transformed mouse embryonic fibroblast cell line MEF5/N9 (Schwenk et al., Nucleic Acids Research, 26(6) 1427-1432 (1998)) was obtained from Michel Aguet (University of Zurich, Switzerland). The cells were grown in DMEM medium (Life Technologies) supplemented with 2 mM […] and 10% fetal calf serum at 37° C., 5% CO2 in humid atmosphere and passaged upon trypsinization. One day before transient transfection 4·10^4 cells were plated into a 24-well plate (Falcon). For the transient transfection of MEF5/N9 cells with plasmids, each well received into 500 μl of medium a total amount of 150 ng or 200 ng supercoiled plasmid DNA complexed before with the FuGene6 transfection reagent (Roche Diagnostics GmbH, Mannheim, Germany) according to the manufacturer's protocol. Each 150 ng or 200 ng DNA preparation (FIG. 2 sample 1 to 11) contained 100 ng of the β-Galactosidase expression vector pCMV-β-gal-pA (pCMVβ, Clontech, FIG. 1G, SEQ ID NO: 56), and 100 ng of the fusion ER(T2) expression vectors to be tested (FIG. 2 sample 3-7, 10-11) and the control plasmids (FIG. 2 sample 1-3), except for the samples with the plasmids pCAG-Casp9full-ER(T2)-bpA (FIG. 2 sample 8) and pCAG-Casp9trunc-ER(T2)-bpA (FIG. 2 sample 9), respectively, that received 50 ng of the test vector. For each sample to be tested four individual wells were transfected. Five hours after the addition of the DNA preparations each well received additional 500 μl of growth medium. The following day, the medium of two wells of each sample was replaced by fresh medium. The other two wells received medium containing 10^−8 M 4-hydroxy-tamoxifen (Sigma). 48 hours after induction with 4-OH-tamoxifen, the cells of each well were lysed with 200 μl lysate reagent supplemented with protease inhibitors (Roche Diagnostics GmbH). The lysates were centrifuged and 50 μl were used to determine the β-galactosidase activities using the β-galactosidase reporter gene assay (Roche Diagnostics GmbH) according to the manufacturer's protocol in a microplate luminometer (Berthold Detection Systems GmbH). The mean value and standard deviation of the samples was calculated from the β-galactosidase RLU values obtained from the two transfected wells of each sample. The relative β-galactosidase activity was obtained by comparison to the negative control (pCAG-Cre-ER(T2)-bpA) without 4-OH-tamoxifen.
To investigate the cell death effect of the different ER(T2) fusion constructs quantitatively, we performed transient cotransfections of the ER(T2) fusion protein expression vectors together with a fixed amount of a reporter plasmid coding for β-galactosidase in MEF5/N9 fibroblast cells. Transfected cells were treated 12 hours after transfection with 4-OH-tamoxifen at a concentration of 10^−8 M. Following 48 hours of 4-OH-tamoxifen induction, the cells from the various samples were lysed and the activity of β-galactosidase in the lysates was determined by a chemiluminescence assay and expressed in “Relative Light Units” (RLU) (FIG. 2). As positive controls for 4-OH-tamoxifen-inducible cell death, we prepared samples transfected with the constructs pCAG-HAFas-ER(T2) or pCAG-MFas-ER(T2) together with the reporter plasmid and treatment with 4-OH-tamoxifen. As negative control for this assay served samples which received the reporter plasmid together with the expression vector pCAG-Cre-ER(T2) and that were treated with 4-OH-tamoxifen.
To determine the relative activity of the tested ER(T2) fusion constructs inducing apoptosis in the presence of 4-OH-tamoxifen, the RLU values of β-galactosidase activity were divided individually for each sample by the RLU value obtained from the sample which received the plasmid pCAG-Cre-ER(T2) but was not treated with 4-OH-tamoxifen (defined as negative control). The relative activity of the tested Caspase- or bax-ER(T2) fusion proteins was then compared to the negative control for 4-OH-tamoxifen-dependent cell death defined as an activity of 1.

MEF5/N9 cells [2] = experiment: as above; conditions: no 4-OH-tamoxifen; transient transfection 50 or 100 ng vector; relative to Cre-ER(T2) without 4-OH-tamoxifen
MEF5/N9 cells [3] = experiment: Visible phenotypic changes / viability of stably transfected MEF5/N9 clones on 4-OH-tamoxifen treatment; conditions: 10^−8 M 4-OH-tamoxifen, 24 h
Protocol: (§1) To generate stably transfected MEF5/N9 cells, 2·10^6 cells were coelectroporated with 32 μg ER(T2) fusion plasmid DNA linearised with ScaI and 8 μg pPgk-hygro-pA plasmid DNA linearised with XhoI and plated into two 96-well plates. The cells were grown in DMEM medium (Invitrogen) supplemented with 2 mM Glutamine and 10% fetal calf serum at 37° C., 5% CO2 in humid atmosphere, and passaged upon trypsinization. Two days after transfection the medium was supplemented with 250 U/ml of hygromycin (Calbiochem) for the selection of stable integrants. Upon the growth of resistant colonies these were individually expanded in the presence of hygromycin.
To examine 4-OH-tamoxifen-dependent cell death, 1·10^5 MEF5/N9 cells expressing ER(T2) fusion proteins were plated into each well of a six-well plate. The following day, for each sample the medium in two of four individual wells were replaced with medium supplemented with 10^−8 M 4-hydroxy-tamoxifen. 24 hours after induction with 4-OH-tamoxifen, cells were photographed through a Leica DMI6000B fluorescence microscope with phase contrast either at 10-fold or 20-fold magnification.
Since the responsiveness of the clones, transfected with the same construct, to 4-OH-tamoxifen differed only slightly from each other, only the results obtained from one clone for each construct are shown in the figure.

MEF5/N9 cells [4] = experiment: MTT cytotoxicity assay of stably transfected MEF5/N9 clones; conditions: 10^−8 M 4-OH-tamoxifen, 48 h
Protocol: as §1
To quantify 4-OH-tamoxifen-inducible cell death, we applied the colorimetric MTT assay (Mossman, J. Immunol. Methods, 65, 55 (1983)) allowing the quantification of cell survival. Cells (4·10^3) were plated on 96-well plates. The assay was carried out in three replicas for each sample treated with and without 4-OH-tamoxifen. After 12 h, medium was replaced either with fresh medium or with medium supplemented with 10^−8 M 4-OH-tamoxifen. Following 48 h of 4-OH-tamoxifen treatment, sterile filtered MTT reagent in PBS (Sigma) was added at the concentration of 0.5 mg/ml. Incubation occurred for 4 hours at 37° C. With ongoing reaction time, dark violet MTT formazan crystals appeared on the bottom of the wells containing living cells. The crystals were dissolved in 150 μl 0.04 N HCl/isopropanol to give a homogeneous blue solution suitable for absorbance measurement at a wavelength of 570 nm on the Synergy™ HT Multi-Detection Microplate Reader (BioTek).

Molecule | 4-OH-tamoxifen-dependent activity / toxicity in transient transfection (in words) (MEF5/N9 cells [1]) | basal toxicity: relative β-galactosidase activity compared to the negative control in absence of 4-OH-tamoxifen (MEF5/N9 cells [2]) | 4-OH-tamoxifen-dependent cell death, phenotype of stable clones (MEF5/N9 cells [3]) | 4-OH-tamoxifen-dependent cell death, phenotype of stable clones (MEF5/N9 cells [3]; listed as ERBax) | cell viability in the presence of 4-OH-tamoxifen (MTT) (MEF5/N9 cells [4]) | 4-OH-tamoxifen-dependent cell death, phenotype of stable clones (MEF5/N9 cells [3]; listed as Casp9truncER) | relative β-galactosidase activity in presence of 4-OH-tamoxifen compared to the negative control (MEF5/N9 cells [1]) | 4-OH-tamoxifen-dependent cell death, phenotype of stable clones (MEF5/N9 cells [3]; listed as Casp3ER)
Bax-ER(T2): N-terminal fusion of full length murine Bax to ER(T2) ligand binding domain, SEQ ID NO: 48 | neither the N-terminal nor the C-terminal fusion of Bax to ER(T2) displayed any activity | 100% | – | – | – | – | – | –
ER(T2)-Bax: spaceless C-terminal fusion of murine Bax to ER(T2), SEQ ID NO: 55; used as negative control in stable clones | no tamoxifen-dependent activity; also recorded: neither the N-terminal nor the C-terminal fusion of Bax to ER(T2) displayed any activity | 84% | did not respond to 4-OH-tamoxifen | not affected by the treatment with 4-OH-tamoxifen | not affected by treatment with 4-OH-tamoxifen | – | – | –
Casp9trunc-ER(T2): truncated murine Caspase-9 without CARD domain fused to ER(T2) ligand binding domain, SEQ ID NO: 32 (protein, fusion protein Casp9trunc-ER(T2)) MGRQAAKQDPEAVKPLDHLVPVVLGPMGLTAKEQRVVKLDPSQPAVGNLTPVVLGPEELWPARLKPEVLRPETPRPVDIGSGGAHDVCVPGKIRGHADMAYTLDSDPCGHCLIINNVNFCPSSGLGTRTGSNLDRDKLEHRFRWLRFMVEVKNDLTAKKMVTALMEMAHRNHRALDCFVVVILSHGCQASHLQFPGAVYGTDGCSVSIEKIVNIFNGSGCPSLGGKPKLFFIQACGGEQKDHGFEVACTSSQGRTLDSDSEPDAVPYQEGPRPLDQLDAVSSLPTPSDILVSYSTFPGFVSWRDKKSGSWYIETLDGILEQWARSEDLQSLLLRVANAVSAKGTYKQIPGCFNFLRKKLFFKTSVEPSAGDMRAANLWPSPLMIKRSKKNSLALSLTADQMVSALLDAEPPILYSEYDPTRPFSEASMMGLLTNLADRELVHMINWAKRVPGFVDLTLHDQVHLLECAWLEILMIGLVWRSMEHPVKLLFAPNLLLDRNQGKCVEGMVEIFDMLLATSSRFRMMNLQGEEFVCLKSIILLNSGVYTFLSSTLKSLEEKDHIHRVLDKITDTLIHLMAKAGLTLQQQHQRLAQLLLILSHIRHMSNKGMEHLYSMKCKNVVPLYDLLLEAADAHRLHAPTSRGGASVEETDQSHLATAGSTSSHSLQKYYITGEAEGFPATA | – | 70% | weaker susceptibility to 4-OH-tamoxifen | – | – | substantial cell death | 22% | –
Casp3-ED4ER(T2): full length murine Caspase-3 fused directly to N-terminal shortened ER(T2) domain, SEQ ID NO: 41 (protein, fusion gene Casp3-ED4ER(T2)) MENNKTSVDSKSINNFEVKTIHGSKSVDSGIYLDSSYKMDYPEMGICIIINNKNFHKSTGMSSRSGTDVDAANLRETFMGLKYQVRNKNDLTREDILELMDSVSKEDHSKRSSFVCVILSHGDEGVIYGTNGPVELKKLTSFFRGDYCRSLTGKPKLFIIQACRGTELDCGIETDSGTDEEMACQKIPVEADFLYAYSTAPGYYSWRNSKDGSWFIQSLCSMLKLYAHKLEFMHILTRVNRKVATEFESFSLDSTFHAKKQIPCIVSMLTKELYFYHLESLALSLTADQMVSALLDAEPPILYSEYDPTRPFSEASMMGLLTNLADRELVHMINWAKRVPGFVDLTLHDQVHLLECAWLEILMIGLVWRSMEHPVKLLFAPNLLLDRNQGKCVEGMVEIFDMLLATSSRFRMMNLQGEEFVCLKSIILLNSGVYTFLSSTLKSLEEKDHIHRVLDKITDTLIHLMAKAGLTLQQQHQRLAQLLLILSHIRHMSNKGMEHLYSMKCKNVVPLYDLLLEAADAHRLHAPTSRGGASVEETDQSHLATAGSTSSHSLQKYYITGEAEGFPATA | could not be regulated in presence of 4-OH-tamoxifen | 52% | – | – | – | – | – | –
Casp3-ER(T2): full length murine Caspase-3 fused to ER(T2) ligand binding domain, SEQ ID NO: 37 (protein, fusion gene Casp3-ER(T2)) MENNKTSVDSKSINNFEVKTIHGSKSVDSGIYLDSSYKMDYPEMGICIIINNKNFHKSTGMSSRSGTDVDAANLRETFMGLKYQVRNKNDLTREDILELMDSVSKEDHSKRSSFVCVILSHGDEGVIYGTNGPVELKKLTSFFRGDYCRSLTGKPKLFIIQACRGTELDCGIETDSGTDEEMACQKIPVEADFLYAYSTAPGYYSWRNSKDGSWFIQSLCSMLKLYAHKLEFMHILTRVNRKVATEFESFSLDSTFHAKKQIPCIVSMLTKELYFYHLEPSAGDMRAANLWPSPLMIKRSKKNSLALSLTADQMVSALLDAEPPILYSEYDPTRPFSEASMMGLLTNLADRELVHMINWAKRVPGFVDLTLHDQVHLLECAWLEILMIGLVWRSMEHPVKLLFAPNLLLDRNQGKCVEGMVEIFDMLLATSSRFRMMNLQGEEFVCLKSIILLNSGVYTFLSSTLKSLEEKDHIHRVLDKITDTLIHLMAKAGLTLQQQHQRLAQLLLILSHIRHMSNKGMEHLYSMKCKNVVPLYDLLLEAADAHRLHAPTSRGGASVEETDQSHLATAGSTSSHSLQKYYITGEAEGFPATA | low compared to the Caspase 8 or Caspase 9 ER(T2) fusion variants | 52% | neither the two Fas-ER(T2) variants (see FIG. 4 H2, I2) nor Casp3-ER(T2) (FIG. 4 E2) were able to induce apoptosis in the presence of 4-OH-tamoxifen | – | not affected by treatment with 4-OH-tamoxifen | – | 28% | not affected by the treatment with 4-OH-tamoxifen
